Experimental findings from patent publication US20230111363A1 are described below.

The target of test [1] is human serum polyclonal antibodies. The test is described as follows: cross-interaction chromatography (CIC), IgG column against blank column.
Test [2] has the same target. The test is described as follows: cross-interaction chromatography (CIC), column with human serum polyclonal IgG.

B1: anti-human MCT1 antibody Ab1 (antibody, human IgG1, kappa, V domains shown)
VH: QVQLVQSGAEVKKPGASVKVSCTVSGFSLTNYHLQWVRQAPGQGLEWMGFIRSSGNTEYNSEFKSRVTMTRDTSTSTVYMELSSLRSEDTAVYYCARNSWYHGTYYSPGYYVMDAWGQGTLVTVSS
VL: EIVLTQSPGTLSLSPGERATLSCKGSQNINNYLAWYQQKPGQAPRLLIYNRHNLQTGIPDRFSGSGSGTDFTLTISRLEPEDFAVYYCYQYSDGYTFGGGTKVEIKR
On to B1, for which the IgG K' (column retention time ratio) in test [1] stood at 0.05. Besides, in test [2], the IgG column RT came to 5.07 min and the IgG column peak width amounted to 1.5 min.

B2: anti-human MCT1 antibody Ab11 (antibody, human IgG1, kappa, V domains shown)
VH: QVQLVQSGAEVKKPGASVKVSCTVSGRSLTNYHLQWVRQAPGQGLEWMGFIRSSGNTEYNSEFKSRVTMTRDTSTSTVYMELSSLRSEDTAVYYCARNRWHHGTYYSPGYYVMDAWGQGTLVTVSS
VL: EIVLTQSPGTLSLSPGERATLSCKGSQNIENYLAWYQQKPGQAPRLLIYNRHNLQTGIPDRFSGSGSGTDFTLTISRLEPEDFAVYYCYQYSDGYTFGGGTKVEIKR
Regarding B2, the IgG K' (column retention time ratio) in test [1] was 0.06. For the same molecule, in test [2], the IgG column RT turned out to be 5.33 min and the IgG column peak width turned out to be 1.57 min.

B3: anti-human MCT1 antibody Ab15 (antibody, human IgG1, kappa, V domains shown)
VH: QVQLVQSGAEVKKPGASVKVSCTVSGRSLTNYHLQWVRQAPGQGLEWMGFIRSSGNTEYNSEFKSRVTMTRDTSTSTVYMELSSLRSEDTAVYYCARNLWYHGTYYSPGYYVMDAWGQGTLVTVSS
VL: EIVLTQSPGTLSLSPGERATLSCKGSQNIENYLAWYQQKPGQAPRLLIYNRHNLQTGIPDRFSGSGSGTDFTLTISRLEPEDFAVYYCYQYSDGYTFGGGTKVEIKR
Consider B3, for which the IgG K' (column retention time ratio) in test [1] was 0.09. For the same molecule, in test [2], the IgG column RT came to 5.27 min and the IgG column peak width is 1.55 min.

B4: anti-human MCT1 antibody Ab7 (antibody, human IgG1, kappa, V domains shown)
VH: QVQLVQSGAEVKKPGASVKVSCTVSGRSRTNYHLQWVRQAPGQGLEWMGFIRSSGNTEYNSEFKSRVTMTRDTSTSTVYMELSSLRSEDTAVYYCARNRWYHGTYYSPGYYVMDAWGQGTLVTVSS
VL: EIVLTQSPGTLSLSPGERATLSCKGSQNIENYLAWYQQKPGQAPRLLIYNRHNLQTGIPDRFSGSGSGTDFTLTISRLEPEDFAVYYCYQYSDGYTFGGGTKVEIKR
As for B4, in test [1], the IgG K' (column retention time ratio) worked out at 0.08. In test [2], this molecule showed an IgG column RT of 5.38 min and an IgG column peak width of 1.79 min.

B5: anti-human MCT1 antibody Ab19 (antibody, human IgG1, kappa, V domains shown)
VH: QVQLVQSGAEVKKPGASVKVSCTVSGRSLTNYHLQWVRQAPGQGLEWMGFIRRSGNTEYNSEFKSRVTMTRDTSTSTVYMELSSLRSEDTAVYYCARNRWYHGTYYSPGYYVMDAWGQGTLVTVSS
VL: EIVLTQSPGTLSLSPGERATLSCKGSQNIENYLAWYQQKPGQAPRLLIYNRHNLQTGIPDRFSGSGSGTDFTLTISRLEPEDFAVYYCYQYSDGYTFGGGTKVEIKR
For the molecule B5, the IgG K' (column retention time ratio) in test [1] was 0.08. In test [2], this molecule yielded an IgG column RT of 5.41 min and an IgG column peak width of 1.94 min.

B6: anti-human MCT1 antibody Ab17 (antibody, human IgG1, kappa, V domains shown)
VH: QVQLVQSGAEVKKPGASVKVSCTVSGRSLTNIHLQWVRQAPGQGLEWMGFIRSSGNTEYNSEFKSRVTMTRDTSTSTVYMELSSLRSEDTAVYYCARNRWYHGTYYSPGYYVMDAWGQGTLVTVSS
VL: EIVLTQSPGTLSLSPGERATLSCKGSQNIENYLAWYQQKPGQAPRLLIYNRHNLQTGIPDRFSGSGSGTDFTLTISRLEPEDFAVYYCYQYSDGYTFGGGTKVEIKR
For B6, the IgG K' (column retention time ratio) in test [1] came to 0.05. In addition, in test [2], the IgG column RT is 5.19 min and the IgG column peak width worked out at 1.36 min.

B7: anti-human MCT1 antibody Ab9 (antibody, human IgG1, kappa, V domains shown)
VH: QVQLVQSGAEVKKPGASVKVSCTVSGRSLTNYHIQWVRQAPGQGLEWMGFIRSSGNTEYNSEFKSRVTMTRDTSTSTVYMELSSLRSEDTAVYYCARNRWYHGTYYSPGYYVMDAWGQGTLVTVSS
VL: EIVLTQSPGTLSLSPGERATLSCKGSQNIENYLAWYQQKPGQAPRLLIYNRHNLQTGIPDRFSGSGSGTDFTLTISRLEPEDFAVYYCYQYSDGYTFGGGTKVEIKR
Consider B7, for which the IgG K' (column retention time ratio) in test [1] was 0.07. In test [2], the IgG column RT was found to be 5.28 min and the IgG column peak width came out at 1.46 min.

B8: anti-human MCT1 antibody Ab10 (antibody, human IgG1, kappa, V domains shown)
VH: QVQLVQSGAEVKKPGASVKVSCTVSGRSLTGYHLQWVRQAPGQGLEWMGFIRSSGNTEYNSEFKSRVTMTRDTSTSTVYMELSSLRSEDTAVYYCARNRWYHGTYYSPGYYVMDAWGQGTLVTVSS
VL: EIVLTQSPGTLSLSPGERATLSCKGSQNIENYLAWYQQKPGQAPRLLIYNRHNLQTGIPDRFSGSGSGTDFTLTISRLEPEDFAVYYCYQYSDGYTFGGGTKVEIKR
In the case of B8, in test [1], the IgG K' (column retention time ratio) amounted to 0.06. In test [2], this molecule returned an IgG column RT of 5.27 min and an IgG column peak width of 1.44 min.

B9: anti-human MCT1 antibody Ab18 (antibody, human IgG1, kappa, V domains shown)
VH: QVQLVQSGAEVKKPGASVKVSCTVSGRSLTNYHLGWVRQAPGQGLEWMGFIRSSGNTEYNSEFKSRVTMTRDTSTSTVYMELSSLRSEDTAVYYCARNRWYHGTYYSPGYYVMDAWGQGTLVTVSS
VL: EIVLTQSPGTLSLSPGERATLSCKGSQNIENYLAWYQQKPGQAPRLLIYNRHNLQTGIPDRFSGSGSGTDFTLTISRLEPEDFAVYYCYQYSDGYTFGGGTKVEIKR
As for B9, the IgG K' (column retention time ratio) in test [1] stood at 0.08. In test [2], this molecule had an IgG column RT of 5.35 min and an IgG column peak width of 1.64 min.

B10: anti-human MCT1 antibody Ab16 (antibody, human IgG1, kappa, V domains shown)
VH: QVQLVQSGAEVKKPGASVKVSCTRSGRSLTNYHLQWVRQAPGQGLEWMGFIRSSGNTEYNSEFKSRVTMTRDTSTSTVYMELSSLRSEDTAVYYCARNRWYHGTYYSPGYYVMDAWGQGTLVTVSS
VL: EIVLTQSPGTLSLSPGERATLSCKGSQNIENYLAWYQQKPGQAPRLLIYNRHNLQTGIPDRFSGSGSGTDFTLTISRLEPEDFAVYYCYQYSDGYTFGGGTKVEIKR
For the molecule B10, the IgG K' (column retention time ratio) in test [1] is 0.08. In test [2], this molecule had an IgG column RT of 5.4 min and an IgG column peak width of 1.89 min.

B11: anti-human MCT1 antibody Ab12 (antibody, human IgG1, kappa, V domains shown)
VH: QVQLVQSGAEVKKPGASVKVSCTVSGRSLTNYHLVWVRQAPGQGLEWMGFIRSSGNTEYNSEFKSRVTMTRDTSTSTVYMELSSLRSEDTAVYYCARNRWYHGTYYSPGYYVMDAWGQGTLVTVSS
VL: EIVLTQSPGTLSLSPGERATLSCKGSQNIENYLAWYQQKPGQAPRLLIYNRHNLQTGIPDRFSGSGSGTDFTLTISRLEPEDFAVYYCYQYSDGYTFGGGTKVEIKR
For B11, the IgG K' (column retention time ratio) in test [1] is 0.07. For the same molecule, in test [2], the IgG column RT is 5.29 min and the IgG column peak width came to 1.46 min.

B12: anti-human MCT1 antibody Ab8 (antibody, human IgG1, kappa, V domains shown)
VH: QVQLVQSGAEVKKPGASVKVSCTVSGRSLTNYHLQWVRQAPGQGLEWMGFIRSSGNTIYNSEFKSRVTMTRDTSTSTVYMELSSLRSEDTAVYYCARNRWYHGTYYSPGYYVMDAWGQGTLVTVSS
VL: EIVLTQSPGTLSLSPGERATLSCKGSQNIENYLAWYQQKPGQAPRLLIYNRHNLQTGIPDRFSGSGSGTDFTLTISRLEPEDFAVYYCYQYSDGYTFGGGTKVEIKR
Take B12: the IgG K' (column retention time ratio) in test [1] is 0.07. Further, in test [2], the IgG column RT is 5.34 min and the IgG column peak width is 1.55 min.

B13: anti-human MCT1 antibody Ab14 (antibody, human IgG1, kappa, V domains shown)
VH: QVQLVQSGAEVKKPGASVKVSCTVSGRSLTNYHLQWVRQAPGQGLEWMGFIRSSGNTEYNSEFKSRVTMTRDTSTSTVYMELSSLRSEDTAVYYCARNRWYHGTYYSPGYYVMDPWGQGTLVTVSS
VL: EIVLTQSPGTLSLSPGERATLSCKGSQNIENYLAWYQQKPGQAPRLLIYNRHNLQTGIPDRFSGSGSGTDFTLTISRLEPEDFAVYYCYQYSDGYTFGGGTKVEIKR
On to B13, for which, in test [1], the IgG K' (column retention time ratio) was 0.07. Moreover, in test [2], the IgG column RT worked out at 5.29 min and the IgG column peak width stood at 1.51 min.

B14: anti-human MCT1 antibody Ab13 (antibody, human IgG1, kappa, V domains shown)
VH: QVQLVQSGAEVKKPGASVKVSCTVSGRSLTNYHLQWVRQAPGQGLEWMGFIRSSGNTEYNSEFKSRVTMTRDTSTSTVYMELSSLRSEDTAVYYCARNRWRHGTYYSPGYYVMDAWGQGTLVTVSS
VL: EIVLTQSPGTLSLSPGERATLSCKGSQNIENYLAWYQQKPGQAPRLLIYNRHNLQTGIPDRFSGSGSGTDFTLTISRLEPEDFAVYYCYQYSDGYTFGGGTKVEIKR
In the case of B14, in test [1], the IgG K' (column retention time ratio) came out at 0.07. In test [2], this molecule showed an IgG column RT of 5.33 min and an IgG column peak width of 1.63 min.
